Data: patent publication US20130344070A1

Target: human CCR2 (CC-Chemokine Receptor 2) (human) (UniProt P41597)
Assay: cell-based or functional assay

Chain of human CCR2 (CC-Chemokine Receptor 2) (human) (P41597 whole entry): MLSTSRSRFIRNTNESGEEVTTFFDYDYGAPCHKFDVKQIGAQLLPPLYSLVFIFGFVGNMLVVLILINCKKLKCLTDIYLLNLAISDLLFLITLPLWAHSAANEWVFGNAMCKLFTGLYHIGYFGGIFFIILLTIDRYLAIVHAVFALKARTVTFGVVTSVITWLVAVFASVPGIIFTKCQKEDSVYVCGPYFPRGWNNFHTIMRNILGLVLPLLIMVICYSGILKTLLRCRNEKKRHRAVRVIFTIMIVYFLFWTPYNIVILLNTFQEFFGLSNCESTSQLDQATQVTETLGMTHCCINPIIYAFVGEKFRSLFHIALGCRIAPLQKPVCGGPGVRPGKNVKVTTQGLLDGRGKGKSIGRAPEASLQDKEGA

- IC50 in calcium flux assay using human THP-1 cells, ligand MCP-1 (2.5 nM): 0.25 nM
- IC50 in calcium flux assay using human THP-1 cells, ligand MCP-3 (22 nM): 0.11 nM
- IC50 in calcium flux assay using human THP-1 cells, ligand MCP-5 (0.43 nM): 0.18 nM
- IC50 in chemotaxis assay using human THP-1 cells, ligand MCP-1 (3 nM): 0.31 nM
- IC50 in chemotaxis assay using human THP-1 cells, ligand MCP-2 (6.7 nM): 0.46 nM
- IC50 in chemotaxis assay using human THP-1 cells, ligand MCP-3 (1.1 nM): 1.83 nM
- IC50 in chemotaxis assay using human THP-1 cells, ligand MCP-4 (35 nM): 0.84 nM
- IC50 in chemotaxis assay using human THP-1 cells, ligand MCP-5 (0.65 nM): 0.37 nM
- IC50 on MCP-1 induced THP-1 cell migration: 0.309 nM
- IC50 on MCP-2 induced THP-1 cell migration: 0.459 nM
- IC50 on MCP-3 induced THP-1 cell migration: 1.83 nM
- IC50 on MCP-4 induced THP-1 cell migration: 0.843 nM
- IC50 on mouse MCP-5 induced THP-1 cell migration: 0.368 nM
B1: MLN1202 (Takeda) (antibody, INN chains, looked up, V domains shown)
VH: EVQLVESGGGLVKPGGSLRLSCAASGFTFSAYAMNWVRQAPGKGLEWVGRIRTKNNNYATYYADSVKDRFTISRDDSKNTLYLQMNSLKTEDTAVYYCTTFYGNGVWGQGTLVTVSS
VL: DVVMTQSPLSLPVTLGQPASISCKSSQSLLDSDGKTFLNWFQQRPGQSPRRLIYLVSKLDSGVPDRFSGSGSGTDFTLKISRVEAEDVGVYYCWQGTHFPYTFGQGTRLEIK
